Article PMC7265457, “A disulfide constrains the ToxR periplasmic domain structure, altering its interactions with ToxS and bile-salts” (Scientific Reports, 2020)

Target: T1, V. cholerae ToxS periplasmic domain tagged with an N-terminal chitin binding domain (V. cholerae, UniProt P24003 26-173)
T1 construct: also called CBD-ToxSp
T1 sequence: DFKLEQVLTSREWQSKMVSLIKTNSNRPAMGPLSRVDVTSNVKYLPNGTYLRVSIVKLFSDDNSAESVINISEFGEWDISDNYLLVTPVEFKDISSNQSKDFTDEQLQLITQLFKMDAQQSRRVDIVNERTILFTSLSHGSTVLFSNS
Assay: pull-down
Settings: both partners purified

B1: V. cholerae non-disulfide bonded ToxR periplasmic domain (domain or fragment)
chain: TNPSQTSFKPLTVVDGVAVNMPNNHPDLSNWLPSIELCVKKYNEKHTGGLKPIEVIATGGQNNQLTLNYIHSPEVSGENITLRIVANPNDAIKVCE
notes: also called Vc-ToxRp
- amount pulled down (buffer) relative to Vc-dbToxRp with CDC: 0.22 relative level
